Measured values reported in patent US10660939.
Positions of bridges follow the written chain, without caps; N, C: chain ends. Non-standard residues stand in square brackets, D forms with d. Dab = NCC[C@H](N)C(=O)O

How the values were obtained:
[1] = biological target: human melanocortin receptor-4 (human) (UniProt P32245); experiment: cell-based or functional assay
[2] = biological target: human melanocortin receptor-4 (human) (UniProt P32245); experiment: competition with Eu-NDP-α-MSH, hMC4r HEK-293 membranes
[3] = biological target: human melanocortin receptor-4 (human) (UniProt P32245); experiment: competition with [I125]-NDP-α-MSH, hMC4r HEK-293 membranes
[4] = biological target: human melanocortin receptor-4 (human), P32245; experiment: as above; conditions: remark: other sources report otherwise
Sequence of human melanocortin receptor-4 (human), P32245 (P32245 whole entry): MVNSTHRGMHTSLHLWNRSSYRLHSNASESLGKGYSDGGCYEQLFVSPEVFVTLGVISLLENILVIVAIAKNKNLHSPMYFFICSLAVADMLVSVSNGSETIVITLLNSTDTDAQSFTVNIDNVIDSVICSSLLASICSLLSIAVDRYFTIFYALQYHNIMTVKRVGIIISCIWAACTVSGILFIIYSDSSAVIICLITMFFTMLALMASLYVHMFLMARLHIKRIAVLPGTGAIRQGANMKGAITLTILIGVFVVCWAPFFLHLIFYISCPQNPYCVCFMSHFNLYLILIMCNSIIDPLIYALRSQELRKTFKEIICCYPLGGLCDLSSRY

Sequence of human melanocortin receptor-4 (human) (P32245 whole entry): as above

B1: Peptide No. 127 (peptide)
peptide: RXXFRWX
modifications: N-terminal Ac; hGlu 2 (X); Dab 3 (X); D-Phe 4; Dab 7 (X); cyclo(hGlu 2-Dab 7); C-terminal NH2
An EC50 (cAMP) [1] of 0.06 nM, an intrinsic activity (cAMP, NDP-α-MSH is 100%) [1] of 98% and a Ki [2] of 2 nM were found for B1 in this work.

B2: Peptide No. 129 (peptide)
peptide: RXXFRWX
modifications: N-terminal Ac; Dab 2 (X); Dab 3 (X); D-Phe 4; hGlu 7 (X); cyclo(Dab 2-hGlu 7); C-terminal NH2
An EC50 (cAMP) [1] of 0.065 nM, an intrinsic activity (cAMP, NDP-α-MSH is 100%) [1] of 96% and a Ki [2] of 4 nM were found for B2 in this work.

B3: Peptide No. 136 (peptide)
peptide: RXXFRWX
modifications: N-terminal Ac; Dab 2 (X); Dab 3 (X); D-Phe 4; hGlu 7 (X); cyclo(Dab 2-hGlu 7); C-terminal OH
A Ki [3] of 35 nM was found for B3 in this work.

B4: Peptide No. 144 (peptide)
peptide: RXXFRWX
modifications: N-terminal Ac; hGlu 2 (X); Dab 3 (X); D-Phe 4; Dab 7 (X); cyclo(hGlu 2-Dab 7); C-terminal OH
A Ki [3] of 45 nM was found for B4 in this work.

A Ki [4] of 4 nM was found for Ac-RD[Dab][dF]RWK-NH2 (lactam 2-7) [Peptide No. 163] in this work.

A Ki [4] of 57 nM was found for Ac-RD[Dab][dF]RWK-OH (lactam 2-7) [Peptide No. 164] in this work.
